Data taken from PMC7796288.

Target: Pomacea bridgesii metallothionein 2 (PbrMT2), recombinant Cd(II)-loaded preparation (Pomacea bridgesii)
Test: native MS; ESI-TOF MS at neutral pH (7.0), running buffer 5:95 acetonitrile:ammonium acetate (15 mM); Cd-PbrMT2 production from a CdCl2-supplemented culture; dimeric species seen together with monomeric Cd8- and Cd9- species

Substance: Pomacea bridgesii metallothionein 2 (PbrMT2), recombinant Cd(II)-loaded preparation (natural protein)
- stoichiometry N: 2
